# Experimental data taken from paper PMC5180104, “Interaction of cytokeratin 19 head domain and HER2 in the cytoplasm leads to activation of HER2-Erk pathway” (Scientific Reports, 2016).
# B1: GST-T4 (domain or fragment, human, UniProt P08727 1-79, looked up)
# chain: MTSYSYRQSSATSSFGGLGGGSVRFGPGVAFRAPSIHGGSGGRGVSVSSARFVSSSSSGAYGGGYGGVLTASDGLLAGN
# notes: KRT19, human, T4 fragment (head domain); also called GST-T4 wt; source: E. coli, purified (Glutathione sepharose 4B column)
# Target: T1, purified recombinant Flag-tagged HER2 C-terminal domain (human, UniProt P04626 988-1255)
# T1 construct: HER2, human, COOH-terminal domain; C-ter is defined as 988-1255 aa in the plasmid section; The results call this protein Flag-tagged; It may be the same construct as m14; source: HEK293T, transfected, purified (antibody bead column)
# Assay: pull-down; purified GST fusion proteins and purified HER2 C-terminal domain; Glutathione sepharose 4B (GSH beads)
# Conditions: both partners purified
binder,measurement,value
B1,binding result,binds
